Source: a protein production outcome set (Wang et al. 2014)

Test: label from the status in PepcDB records
In the case of “MAKGTAVEFQPGGGQARDVFSIAAQAASPAADAGTSAAPAQAAPAPAAVASQAQHFGRTAEPAEPTDLWSYFWNGVTRNYFNFAGRARRKEYWGYCLFWTIALLVIVGIGVFADAEMGNFDSAEMPAMTVGLFGLFLLATFLPSLGMIVRRLHDLGLTGWLCLLILIPTFGSLIILVFALIPTQGRENQWGPVPAGVRV”, the protein production is reported as “failed”.
For “MAKIDALAPQYSRIILLGHSAGGMIVRDAYLLAAGAYLDQPSRGAWWSKVESVLLFASINRGFRPYATATWALGMALMKLVSLQWLLLKPPSWFTLGWLMELEKGSFFVTDLRLSWMRHFHERDDEHRPFVVQFLGDIDGVVAREDVRDTEAFANSYTVTIEGADHSNLFDPAAPPGAAGFMRIMEVFRNPDPQLHEPEQAGELPATGPGRVVFVLHGIRDGNSGWVTDIAEAIEQQAKSDGQGKPLAAACSGHESPVLVDRSTYGWFSAIKFALPWVRRGNLAWFLDRYSYHVARNPDVQFHFVGHSNGTYILGTSLLEVSSLKFDRVYLAGSVLPREFPWQRMMLRRQVATVANQCSSEDWPVGGLCRGLHLIGFRDVGTGGVDGFDELRDLPTQPQTLWFKGDHGKPLQRPNQPNIVNYVLASHIATPLLSAPTGADLCERPSFWFRARMYGFALLTALGVGAAFYGAWWGFTHDHEGLVIAGILLLYFVLNTI”, the protein production was “failed”.
With “MAKKDNFEEYAQLEEYASAEDISRVRAELLTCPELNTSLAGTIIEIDKNYAKSILITTSEMVADDQGLIFDAFIFAAANYVAQASINKEFSVIIGSKCFFYAPLKLGDVLELEAHALFDETSKKRDVKVVGHVKEVKMFEGTIQVVSTDEHIFKLKRPPLNTVKPTENQEQGAKINNPEAVAAALMASVGGK” the protein production was “failed”.
For “MAKKILILGAAGEIARMLTDRLLAESDAELVLYGRNVSQRLALEENSRIKLVDGTFGESEKLEAALAGVDVVYLNSMSSPADTASVVQALEKAGVKRLLGATIAGVEDEVPYELATWTKNSLPASYIKGEYDSAKIVRDSNLDYTLLRLTWLFNDESDREYELVPSGVEFADAEVSRQAITQAILDILNGEESEYVRKSFGLGKPNTHYGKPSFY”, the protein production was “failed”.
For “MAKKPAAHATKPKPWTEMATHLVDVAMGRKPADLVIRNGRWVNVHSGEIIAGTDIAIAGGRFAYCGPNASHAIGQGTKVVDAGGRYLVPGLCDAHMHVESGMVTVTEFCRAVIPHGTTSMFIDPHEIANVLGLPGVRLMHDEAVAMPINVHVQMPSCVPSAPGLEHAGAELTVADVAEAMTWENIIGLGEVMNFPGVAANDPVMSGEIAATVRAGKTVGGHYASRDLGLPFHGYVAGGPEDDHEGTRAEDAIARVRQGMKAMLRLGSAWYDVASQIKAVTEGGIDPRNFILCTDDSHSGTLVHEGHMDRVVRHAIQQGLKPVTAIQMATINTAQHFRLEREIGSIAPGRLADLLIVSDLAAMTIDEVYARGVRLAKGGKLDIDIPAYDYPKTAKNTVKLGKKLRAGDFDITAPKGANEVRVRVIGVIENQAPTRALEADLPVEDGLVAMDRRNDVCQIALVERHRGTGGVTNAFVSGFGYMGDCAMASSVAHDAHHIICVGTNKQDMALAVNRLGQVGGGVVLFSKGKELALVEMPIAGLMSDERAEIVAAKAEKLTEAMRKMGCSLNNAYMQHSLLALVVIPELRISDVGLIDVTTFQKVDLFV”, the protein production was “failed”.
For “MAKKTSSLLSRRRTRRPGEPPLDLGSIPWLGYALDFGKDAASFLTRMKEKHGDIFTILVGGRYVTVLLDPHSYDAVVWEPRTRLDFHAYAIFLMERIFDVQLPHYSPSDEKARMKLTLLHRELQALTEAMYTNLHAVLLGDATEAGSGWHEMGLLDFSYSFLLRAGYLTLYGIEALPRTHESQAQDRVHSADVFHTFRQLDRLLPKLARGSLSVGDKDHMCSVKSRLWKLLSPARLARRAHRSKWLESYLLHLEEMGVSEEMQARALVLQLWATQGNMGPAAFWLLLFLLKNPEALAAVRGELESILWQAEQPVSQTTTLPQKVLDSTPVLDSVLSESLRLTAAPFITREVVVDLAMPMADGREFNLRRGDRLLLFPFLSPQRDPEIYTDPEVFKYNRFLNPDGSEKKDFYKDGKRLKNYNMPWGAGHNHCLGRSYAVNSIKQFVFLVLVHLDLELINADVEIPEFDLSRYGFGLMQPEHDVPVRYRIRPHHHH”, the protein production was “not failed”.
With “MAKKVAVLAVNPVNGCGLFQYLEAFFENGISYKVFAVSDTKEIKTNSGMVLIVDDVIANLKGHEDEFDALVFSCGDAVPVFQQYANQPYNVDLMEVIKTFGEKGKMMIGHCAGAMMFDFTGITKGKKVAVHPLAKPAIQNGIATDEKSEIDGNFFTAQDENTIWTMLPKVIEALKLEHHHHHH” the protein production was “not failed”.
With “MAKMIILPKLVQKSVVSPKQTSQERVVTSTFSPPKPAGENISVQRRCELSEYHASGHVISHLPPPFAVAKPTPTTSLLPQPVRLINADAEDASCSSTPSWRIKKSLTCVCFNRKRAYERICSNLTPLQEERLKRLRKRMKNYYDASRPDHQDALRALWSATYPDEKLQDLISDQWKNMGWQGKDPSTDFRGAGFISLENLLFFAKTFSTSFQRLLNKQGGKRAAWEYPFAVAGVNITFMIMQMLDLEASKPRSFIRLVFLQMLSESEWAFDLLYCVAFVVMDKQWLDKNATYMEFNDVLRCTRGQLERELMMDDVFRIEDMPSFSLLS” the protein production was “failed”.
In the case of “MAKNDKINFSTPSGFPEFLPSEKRLELYLLDTIRRVYESYGFTPIETPAVERLEVLQAKGNQGDNIIYGLEPILPPNRQAEKDKSGDTGSEARALKFDQTVPLAAYIARHLNDLTFPFARYQMDVVFRGERAKDGRFRQFRQCDIDVVGREKLSLLYDAQMPAIITEIFEAVNIGDFVIRINNRKVLTGFFQSLNISETQIKSCISIIDNLEKIGEAKVKLELEKEGINPEQTQKIIDFVKIDGSVDDVLDKLKHLSQTLPESEQFNLGVSELETVITGVRNLGVPDKRFCIDLAIARGLNYYTGTVYETTLIGHEALGSICSGGRYEELVGTFIGEKMPGVGISIGLTRLISRLLKAGILNTLPPTPAQVVVVNMQDELMPTYLKVSQQLRQAGLNVITNFEKRQLGKQFQAADKQGIRFCVIIGADEAAAQKSSLKDLQSGEQVEVALADLAEEIKRRLT”, the protein production is reported as “not failed”.
With “MAKNQWNELLLEQVRQLPMASSKEHVQLRLNLLIVEASKQKKTIPTEFELIFQAYQLSRSGKLIDSISVFFDAINFSQQNQQEFLICFCHYNIGTLYGMLGNYFYAQKFLAKAEKMQQFCDGYITGIIKNNIGDIFRQIGNFNEALIYLTQAAELLSQHGPKTAAALSYFNIAEIKAKQFLFTEANELLENLYQDIKNEPRYLGFYYKIKAEIASHSGEFEQADKLHLLSIENMQISEHDYYYAEMILEYCHFLTSCLQYKKLDQFIALGLAVAKKIESDKLIDGFNDIILLRIKDIDDINIREKHYQTLTSSLLNSRRELLKREGDYLQQLYRLNVAKLNLSTMKSLSDNLAVINKVGHYINTSSDIKNALPQIQQDLASLFQTDTLALGFYNSEQDQITIHYLDNNLPAQTPYITDCKSEATYMSYCIKSNSAFYFNHMNSEQKVAMLGDRCDSKVQFKSAMFSPITINGEVKGVFTIQARESYQYQTFHFELFSQLISYISIALENQYNRQQLLHLSQTDHLTQIWNRKSLEAHFNQLKQQQNQEYTGIMIDIDHYKEYNDTYGHIAGDEVLIQVSRLIKQGFHSLETQVYRYGGDEFFVLIPSIKPEKIRQKLDKLLIEVKKLLIPHKASTCSCYLSISVGIGYNKDPENQLSLNSLVNTADRALYQAKENGRNCYFELAHIKETMY” the protein production was “failed”.
For “MAKNTLSFVCQNCGAAYNRWQGKCESCGEWNTLAEEDTSGSVPVSIRSKRKGRTFALESLAGKSPDAPRLSSGMTELDRVTGGGFVRGSVLLVGGDPGIGKSTLLTQATSLMARAGHRIVYISGEEAIAQVRLRAERLGLSDAPVQLAAETSVEDIVSTLSEGAVPRLIVIDSIQTMWTDTVESAPGTVTQVRASAQALIRFAKKTGAAIILVGHVTKDGQIAGPRVVEHMVDAVMSFEGEGSQQFRILRAVKNRFGPTDEIGVFEMTGLGLREVTNPSELFLSERDLGTPGTAVFAGIEGTRPVLVELQALVAPTSLGTPRRAVVGWDPSRLSMVLAVLEAHCGVKLSGHDVYLNVAGGLRIHEPAADLAAAAALVSSLVNAQLPTDAVYFGEISLSGVVRPVAQTPARLKEAAKLGFQRAVLPESARGEAGGDAGLSLNAVNSLTTLVAEIAARGSRRGESGGSAEKNATPARFRRGEGLEHHHHHH”, the protein production was “failed”.
With “MAKNYDQLAKTIIKDVGGKDNVNSVVHCATRLRFKLKDEKKADDDALKNTDGVVTVVKAGGQYQVVIGNEVADVYDAVLKEGGFSGGGEVPDDYSEDDNSSFVDKAVALISGIFTDILAPLSAGGIIKGLVVLAAAMGWLSTSSGAYQILYAIGDSIFYFLPIFLGVTAARRFHMNQFIGLAIGATLTYPTMVQLAASKTVLGTLFAGTPFASQIHTTFFGIPVITMNYTSTVLPVLFAVWFASIIEHWSKKWIPSVVQMFLVPVVTMIITLPIAFIVIGPVMTWVGNAIGAVMSGIYHFSPIIAGLLLGGLWQVLVIFGVHWGIVAVTTADLAALGYDPILGMTCMVCYAQIGVVLAIIKQTKDKKLKENATGAFFSGLFGVTEPAIYGITLPRKRPFVLSCIAGAVSGAIIGAFHSVLYILPSMGFFAIPAYINPKGGSMTQIIGVIIAGVVAFIVGFALQMLFGKKSVDAKYDKKQTEKVEVNETLQTTPDVATATLASPENGQIMPLSEVKDDVFSSGAMGKGIAIEPSDGVLHAPADGKIIMTFKTGHAIGMKTKNGAEILMHIGMDTANLQGKGFDTLVEKDQKVKAGDPLIKFDIDLIKKAGYPVTTPMVVTNSQDFDDIKQIVKGEVKVGQAVLELEAPEAKDVTTSVNGQVQLN” the protein production was “failed”.
In the case of “MAKPGFRLALFATLLALIVVLLGAYTRLTHAGLGCPDWPGCYGFISVPKGEAQLAHAELHFPDTPVEAHKGWNEMIHRYFAGTLGLLIVLLAARAWTHRRHPGQPLKLPLFLLAVVFAQAAFGMWTVTLKLWPQVVTAHLLGGFATLSLLFLLTLRLSGVLPALIVPRRLQYWATAGLVLVIGQIALGGWVSSNYAAVACIDLPTCHGQWWPNMDFANGFHLTQHIGPNYLGGQLDSDARTAIHMTHRVGAVLVTLVLLGLAWQLRQTGMTRLAGLVLVALGAQVSLGLSNVFFHLPLPVAVAHNAGGAALLLTLVLVNYHARTSLVRARDRLPLGWRLSPRKQMAGPITIKGEMPWRL”, the protein production is reported as “failed”.
In the case of “MAKRGREAKSAERTRQLAESEARLRLMADAAPFPLAMNRLAGGELIYANARAEELFGARLRPDRPLRVQDFYAEPAEREKVARALLEGRAVRDREVRLRDAGGRPFWALVSCELVQSGETWYVINGVNDISERKRLEQSLQDANAALRSHLREIELLQQGLREQALRDPLTGLFNRRHLDDILPRVLAHMLALHREVAVLMVDADHFKRINDTYGHRCGDAVLTALGACLSDHFRSGDIVCRYGGEEFFVLLPGATLEAAYAKAEGLRRAVGERPMEALGHSLAVTLSIGLALCPLHGSDAESVVRAADEALYQAKRQGRDRVCVAARLQSLLS”, the protein production is reported as “failed”.
In the case of “MAKSHPRWRLAKKVLTWLFFIAVVVLLVVYAKKVDWGDVWTVIRDYNRTALLSAVGLVIVSYLLYGCYDLLGRLYCGHKLAKRQVMLVSFVCYAFNLTLSTWVGGIGMRYRLYSRLGLPGSTITRIFSLSITTNWLGYILLGGIIFTFGIVQLPDHWYIDAGTLRILGIVLLLIIAVYLWFCAFAKRRHMTIKGQKLVLPSWKFALAQMAISSANWMAMGAIIWLLMGQDVNYFFVLGVLLVSSIAGVIVHIPAGIGVLEAVFLALLAGEHTSQGTIIAALLAYRVLYYFIPLLLALVCYLILESRAKKLRAKNERAMAK”, the protein production is reported as “failed”.
For “MAKSPKFMVFHLRELIYTLVFILLGIILIISLVIMFYNRGNKQEKEENTGVYEPGVYTSCVTLNGNPMDVKVTLDDNHINSITVDNVSNTITTMYPLVEPAFNDIANQIVTNQSLENIKFDDNSKYTYTILYNAILDTIEKGKVGE”, the protein production was “failed”.
For “MAKSSVANIFTFSNLSCGLLSLIMTLAASSTNNEYYKLACLFILIAGIIDRYDGRVARALNVSSELGKELDSLADLVSFGVAPSILAYHLCNFSSNFNFLGYIFVLIFPIAGAYRLARYNLSTFDGVFRGIPITLAGMFMALYSLIYLLLNTQPNAVLTIVIMLILSYLMVSNLKLKKL”, the protein production was “not failed”.
